From patent US20240309103A1 (Regeneron, published 2024)

What was measured:
[1] = target: T1, human NPR1 extracellular domain expressed with a C-terminal mouse IgG2a (hNPR1-mFc) (human); assay: SPR, mAb captured, 37 C
T1 construct: also called hNPR1-Fc; human NPR1 dimer
T1 chain: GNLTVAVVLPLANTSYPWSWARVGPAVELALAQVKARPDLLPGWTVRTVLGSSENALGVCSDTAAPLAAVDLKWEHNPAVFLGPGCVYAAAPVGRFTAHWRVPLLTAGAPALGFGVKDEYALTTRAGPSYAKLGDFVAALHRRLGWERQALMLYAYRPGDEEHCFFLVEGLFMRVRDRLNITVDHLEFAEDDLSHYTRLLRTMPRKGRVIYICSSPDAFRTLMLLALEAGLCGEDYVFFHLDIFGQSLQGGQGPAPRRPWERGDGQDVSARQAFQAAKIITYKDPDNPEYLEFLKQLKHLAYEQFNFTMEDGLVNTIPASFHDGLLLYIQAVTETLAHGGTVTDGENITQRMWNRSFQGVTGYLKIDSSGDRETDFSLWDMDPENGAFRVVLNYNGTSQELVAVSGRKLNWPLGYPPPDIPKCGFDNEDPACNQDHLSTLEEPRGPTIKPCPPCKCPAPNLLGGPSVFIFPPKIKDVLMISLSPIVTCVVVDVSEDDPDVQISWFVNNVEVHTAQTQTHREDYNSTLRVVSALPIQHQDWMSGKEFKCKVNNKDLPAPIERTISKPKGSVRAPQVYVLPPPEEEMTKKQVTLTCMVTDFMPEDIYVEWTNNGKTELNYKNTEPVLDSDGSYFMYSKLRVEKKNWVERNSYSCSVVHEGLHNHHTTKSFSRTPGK
Description: (§1) Equilibrium dissociation constant (KD) for different NPR1 reagents binding to purified anti-NPR1 monoclonal antibodies (mAbs) were determined using a real-time surface plasmon resonance based Biacore 4000 biosensor. All binding studies were performed in 10 mM HEPES, 150 mM NaCl, 3 mM EDTA, and 0.05% v/v Surfactant Tween-20, pH 7.4 (HBS-ET) running buffer at 25° C. and 37° C. The Biacore CM5 sensor chip surface was first derivatized by amine coupling with either mouse anti-human Fc specific mAb (GE Healthcare, #BR100839) or goat anti-human Fcy specific polyclonal antibody (Jackson ImmunoResearch Laboratories, #BR-1008-39) to capture anti-NPR1 mAbs.

[2] = target: T2, monkey NPR1 extracellular domain expressed with a C-terminal myc-myc-hexahistidine (mfNPR1-MMH) (monkey, UniProt P16066 33-473 (human entry)); assay: SPR, mAb captured, 37 C
T2 construct: also called monomeric monkey NPR1
T2 chain: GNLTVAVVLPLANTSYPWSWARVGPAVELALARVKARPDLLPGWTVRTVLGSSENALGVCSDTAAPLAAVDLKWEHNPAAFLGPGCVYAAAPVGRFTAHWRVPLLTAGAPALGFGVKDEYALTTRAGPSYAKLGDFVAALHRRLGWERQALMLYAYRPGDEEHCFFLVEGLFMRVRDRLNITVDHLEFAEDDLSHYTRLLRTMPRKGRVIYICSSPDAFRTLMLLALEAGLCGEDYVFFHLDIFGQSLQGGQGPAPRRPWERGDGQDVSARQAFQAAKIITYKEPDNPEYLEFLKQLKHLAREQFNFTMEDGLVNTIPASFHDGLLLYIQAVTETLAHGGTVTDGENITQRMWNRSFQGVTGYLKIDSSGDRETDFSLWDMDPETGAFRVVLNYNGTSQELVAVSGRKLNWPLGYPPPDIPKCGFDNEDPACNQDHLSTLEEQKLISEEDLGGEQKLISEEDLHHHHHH
Description: as §1

[3] = target: T3, mouse NPR1 extracellular domain expressed with a C-terminal myc-myc-hexahistidine (mNPR1-MMH) (mouse, UniProt P18293 29-469); assay: SPR, mAb captured, 37 C
Description: as §1
Target sequence in this assay (P18293 other isoform, or with tags, fused parts or gaps): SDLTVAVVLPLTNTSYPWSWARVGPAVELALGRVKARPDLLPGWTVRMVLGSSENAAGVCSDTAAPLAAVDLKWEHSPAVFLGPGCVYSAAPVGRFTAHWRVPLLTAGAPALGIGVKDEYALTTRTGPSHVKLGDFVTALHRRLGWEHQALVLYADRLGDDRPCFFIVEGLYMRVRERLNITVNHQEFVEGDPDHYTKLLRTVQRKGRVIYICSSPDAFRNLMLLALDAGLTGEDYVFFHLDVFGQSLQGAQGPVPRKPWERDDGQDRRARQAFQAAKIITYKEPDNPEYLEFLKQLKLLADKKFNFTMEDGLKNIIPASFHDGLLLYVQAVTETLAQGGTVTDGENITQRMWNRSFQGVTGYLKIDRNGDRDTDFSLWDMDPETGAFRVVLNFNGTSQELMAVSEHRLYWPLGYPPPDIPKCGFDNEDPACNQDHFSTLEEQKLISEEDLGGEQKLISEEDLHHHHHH

[4] = target: T1, human NPR1 extracellular domain …; assay: SPR, mAb captured, 25 C
Description: as §1

[5] = target: T2, monkey NPR1 extracellular domain …; assay: SPR, mAb captured, 25 C
Description: as §1

[6] = target: T3, mouse NPR1 extracellular domain …; assay: SPR, mAb captured, 25 C
Description: as §1

[7] = target: T4, human NPR1 on HEK293/hNPR1.myc.DDK cells with 10 nM hANP (NPR1-ANP complex) (human, UniProt P01160 124-151); assay: ECL cell binding (MSD), +10 nM hANP
T4 construct: also called NPR1-ANP Complex on the Cell Surface
T4 sequence: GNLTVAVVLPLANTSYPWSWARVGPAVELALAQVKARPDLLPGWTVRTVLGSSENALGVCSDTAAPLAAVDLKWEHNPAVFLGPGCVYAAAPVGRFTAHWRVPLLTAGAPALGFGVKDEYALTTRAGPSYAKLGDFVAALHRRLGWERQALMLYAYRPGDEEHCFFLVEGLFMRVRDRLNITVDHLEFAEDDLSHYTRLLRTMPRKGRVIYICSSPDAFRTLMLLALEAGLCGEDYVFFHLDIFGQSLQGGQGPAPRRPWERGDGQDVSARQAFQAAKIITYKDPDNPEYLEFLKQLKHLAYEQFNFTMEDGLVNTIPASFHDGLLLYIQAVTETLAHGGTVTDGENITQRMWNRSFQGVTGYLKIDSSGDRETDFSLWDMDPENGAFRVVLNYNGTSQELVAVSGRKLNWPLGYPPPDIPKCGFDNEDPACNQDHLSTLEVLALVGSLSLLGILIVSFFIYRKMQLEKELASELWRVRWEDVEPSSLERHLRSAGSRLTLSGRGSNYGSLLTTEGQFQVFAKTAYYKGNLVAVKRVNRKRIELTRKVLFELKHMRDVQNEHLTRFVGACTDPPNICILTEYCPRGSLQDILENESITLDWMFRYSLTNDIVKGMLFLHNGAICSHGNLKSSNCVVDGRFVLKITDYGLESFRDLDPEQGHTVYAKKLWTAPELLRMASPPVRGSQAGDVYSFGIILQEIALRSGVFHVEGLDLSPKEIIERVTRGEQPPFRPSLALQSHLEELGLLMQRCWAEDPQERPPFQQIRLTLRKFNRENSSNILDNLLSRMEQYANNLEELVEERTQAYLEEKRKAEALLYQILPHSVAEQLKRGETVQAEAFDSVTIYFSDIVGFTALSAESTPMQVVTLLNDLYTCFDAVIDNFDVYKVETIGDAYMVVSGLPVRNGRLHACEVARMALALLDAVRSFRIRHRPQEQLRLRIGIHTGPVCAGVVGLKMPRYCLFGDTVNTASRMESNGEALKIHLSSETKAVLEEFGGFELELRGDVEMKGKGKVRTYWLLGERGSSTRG
T4 sequence (peptide): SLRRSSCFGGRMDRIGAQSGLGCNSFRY
Description: (§2) All cells were washed once with 1×PBS with Ca²⁺/Mg²⁺ and counted with a Cellometer™ Auto T4 cell counter (Nexcelom Bioscience). Approximately 2.0×10⁴ HEK293/hNPR1.myc.DDK or HEK293 cells were seeded separately onto 96-well carbon electrode plates (MULTI-ARRAY high bind plate, Meso Scale Discovery (MSD, Rockville, MD)) and incubated for 1 hour (h) at 37° C. Nonspecific binding sites were blocked by 2% BSA (w/v) in 1×PBS with Ca²⁺/Mg²⁺for 1 h at room temperature (RT). HEK293/hNPR1.myc. […] The plate-bound antibodies were detected with SULFO-TAG™-conjugated goat polyclonal anti-human IgG antibody specific for heavy and light chains (Jackson Immunoresearch, West Grove, PA) for 1 h, RT.
(§3) After washes, plates were developed with Read Buffer (MSD, Rockville, MD) according to manufacturer's recommended procedure and luminescent signals were recorded with a SECTOR Imager 600 (MSD, Rockville, MD). Luminescence intensity, measured in relative light units (RLU), was recorded to indicate the binding intensity of each antibody at the range of concentrations.
(§4) In addition, direct binding signals (RLU) were analyzed as a function of the antibody concentration and data were fitted with a sigmoidal (four-parameter logistic) dose-response model using R statistical package (open source).

mNPR1-mFc [8] = target: T5, mNPR1-mFc (mouse); assay: SPR Biacore, mAb captured by anti-human Fc, 25C
T5 construct: also called mouse NPR1 extracellular domain expressed with a C-terminal mouse IgG2a
T5 chain: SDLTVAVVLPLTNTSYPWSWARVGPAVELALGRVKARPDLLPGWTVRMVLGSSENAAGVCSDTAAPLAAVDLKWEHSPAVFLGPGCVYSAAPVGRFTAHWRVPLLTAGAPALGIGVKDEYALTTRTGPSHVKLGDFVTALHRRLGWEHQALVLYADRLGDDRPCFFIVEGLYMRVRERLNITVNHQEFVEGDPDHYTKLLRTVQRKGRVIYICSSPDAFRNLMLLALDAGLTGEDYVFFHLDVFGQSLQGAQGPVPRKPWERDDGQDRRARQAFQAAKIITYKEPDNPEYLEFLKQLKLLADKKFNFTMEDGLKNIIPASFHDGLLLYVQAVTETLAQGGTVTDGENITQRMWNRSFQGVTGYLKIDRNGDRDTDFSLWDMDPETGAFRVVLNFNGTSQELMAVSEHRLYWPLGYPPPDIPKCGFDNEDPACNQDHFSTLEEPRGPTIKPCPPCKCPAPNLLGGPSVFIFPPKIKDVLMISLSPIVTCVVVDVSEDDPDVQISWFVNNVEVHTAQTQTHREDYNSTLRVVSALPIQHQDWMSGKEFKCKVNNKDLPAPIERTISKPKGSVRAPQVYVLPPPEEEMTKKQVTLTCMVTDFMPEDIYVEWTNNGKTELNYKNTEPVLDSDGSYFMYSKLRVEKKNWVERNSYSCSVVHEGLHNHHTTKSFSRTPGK
Description: as §1

[9] = target: T6, human NPR1 on HEK293/hNPR1.myc.DDK cells (0 hANP) (human, UniProt P16066 33-1061); assay: cell-based or functional assay
T6 sequence: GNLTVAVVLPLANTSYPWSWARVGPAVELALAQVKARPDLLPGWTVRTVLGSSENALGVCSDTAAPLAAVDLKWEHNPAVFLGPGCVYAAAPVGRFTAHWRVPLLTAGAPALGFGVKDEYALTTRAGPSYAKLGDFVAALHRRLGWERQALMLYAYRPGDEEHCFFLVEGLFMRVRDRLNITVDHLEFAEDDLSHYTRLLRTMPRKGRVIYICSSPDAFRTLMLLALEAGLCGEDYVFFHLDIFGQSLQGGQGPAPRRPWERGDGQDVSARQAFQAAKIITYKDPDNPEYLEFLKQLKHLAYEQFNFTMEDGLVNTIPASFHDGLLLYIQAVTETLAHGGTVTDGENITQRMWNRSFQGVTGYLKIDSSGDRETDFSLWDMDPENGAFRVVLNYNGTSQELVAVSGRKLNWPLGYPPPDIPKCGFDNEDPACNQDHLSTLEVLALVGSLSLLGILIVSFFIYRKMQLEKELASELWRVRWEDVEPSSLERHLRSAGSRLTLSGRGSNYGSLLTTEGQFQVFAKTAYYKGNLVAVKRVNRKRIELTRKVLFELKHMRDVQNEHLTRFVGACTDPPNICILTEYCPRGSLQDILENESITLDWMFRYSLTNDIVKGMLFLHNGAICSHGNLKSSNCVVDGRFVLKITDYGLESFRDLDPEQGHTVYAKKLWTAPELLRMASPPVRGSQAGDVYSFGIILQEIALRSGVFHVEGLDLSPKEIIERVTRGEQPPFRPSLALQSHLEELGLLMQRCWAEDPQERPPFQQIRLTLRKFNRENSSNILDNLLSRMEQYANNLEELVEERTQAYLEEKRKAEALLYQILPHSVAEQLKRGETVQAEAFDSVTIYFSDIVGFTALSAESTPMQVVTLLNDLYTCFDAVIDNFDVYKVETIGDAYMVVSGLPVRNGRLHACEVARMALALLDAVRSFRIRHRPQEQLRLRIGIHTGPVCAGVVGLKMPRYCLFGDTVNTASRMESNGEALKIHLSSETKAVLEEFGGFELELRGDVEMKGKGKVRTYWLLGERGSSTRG

[10] = target: T6, human NPR1 on HEK293/hNPR1.myc.DDK …; assay: ECL cell binding (MSD), 0 hANP
Description: as §2, §3, §4

mfNPR1-mFc:hBNP complex = target: T7, mfNPR1-mFc:hBNP complex (monkey; human, UniProt P16860 103-134); assay: SPR Biacore, mAb captured by anti-human Fc, 37C
T7 construct: Receptor-Fc pre-complexed with 10-fold hBNP
Description: as §1

mNPR1-mFc [11] = target: T5, mNPR1-mFc; assay: SPR Biacore, mAb captured by anti-human Fc, 37C
Description: as §1

B1: mAb22810 (antibody, V domains shown)
VH: EVQLVESGGGLVKPGGSLRLSCVVSGFTFRIYTMNWVRQAPGKGLEWVASISSSSSFINYADSLKGRFTISRDNAQNSLYLQMNSLRAEDTAIYYCARAAGNDVLPGRMDVWGQGTSVTVSS
VL: EIVLTQSPGTLSLSPGERATLSCRASQSVSSNYLAWYQQKPGQVPSLLIYGASSRATGIPDRFSGSGSGTDFTLTITRLEPEDFAVYYCQQYGISPWTFGQGTKVEIK
- 100 nM Ag Bound (RU) [1]: 9 RU
- 100 nM Ag Bound (RU) [2]: 0 RU
- 100 nM Ag Bound (RU) [3]: -2 RU
- 100 nM Ag Bound (RU) [4]: 4 RU
- 100 nM Ag Bound (RU) [5]: 1 RU
- binding result [5]: no binding (tested: 100 nM)
- 100 nM Ag Bound (RU) [6]: -1 RU

B2: mAb22033 (antibody, human IgG4, V domains shown)
VH: QVQLVQSGAEVKKPGASVTVSCKASGYTFTDYYMHWVRQAPGQGLEWMGWIKPNSGGTNSAQRFQGRITMTWDTSISTAYMELSRLRSDDTAVYYCSRGGPVMNYYYYYGMDVWGQGTTVTVSS
VL: NIQMTQSPSSLSASVGDRVTITCRASQSIDSYLNWYQQKPGKAPKLLIYVASSLQSGVPSRFSGSGSGKDFTLTISSLQPEDFATYYCQQSYSIPTFGQGTRLEIK
- EC50 [7]: 0.82 nM
- Ratio at 3.7 nM Ab concentration of Cell Binding Signal (RLU) to HEK293/hNPR1.myc.DKK relative to parental HEK293 [7]: 236 ratio
- 100 nM Ag Bound (RU) (mNPR1-mFc [8]): 0 RU
- binding result (mNPR1-mFc [8]): no binding (tested: 100 nM)
- % Activation (vs ANP max), Expt 1 [9]: 130%
- % Activation (vs. ANP max), Expt II [9]: 129%
- EC50 (nM), calcium flux, Expt 1 [9]: 83.7 nM
- EC50 (nM), calcium flux, Expt II [9]: 41.6 nM
- EC50 [10]: 0.49 nM
- Ratio at 3.7 nM Ab concentration of Cell Binding Signal (RLU) to HEK293/hNPR1.myc.DKK relative to parental HEK293 [10]: 207 ratio
- 100 nM Ag Bound (RU) (mfNPR1-mFc:hBNP complex): 167 RU
- Kd (mfNPR1-mFc:hBNP complex): 1.3 nM
- koff (mfNPR1-mFc:hBNP complex): 8.8e-05 s⁻¹
- kon (mfNPR1-mFc:hBNP complex): 67500 M⁻¹ s⁻¹
- t½ (mfNPR1-mFc:hBNP complex): 2.19 h
- 100 nM Ag Bound (RU) (mNPR1-mFc [11]): 1 RU
